Results from patent publication US20240132589A1 (ONCORESPONSE, published 2024).
One block for each binder: values may come before it.

What was measured:
[1] = biological target: T1, Human LILRB1 on transiently transfected HEK293-6E cells (human, UniProt Q8NHL6 24-650); test: flow cytometry, transiently transfected HEK293-6E cells
T1 construct: whole, on cells; also called hLILRB1
Experimental: To determine that the anti-LILRB2 antibodies specifically bind to LILRB2 and not other LILRB and LILRA family members, a cross-reactivity assay was performed. Cross-reactivity of the LILRB2 antibodies to other LILRB proteins was assessed by antibody binding to transiently transfected HEK293-6E cells, measured by flow cytometry. Binding was evaluated to HEK293-6E cells transiently transfected with human LILRB-1, -2, -3, -4, and 5 plasmids (Origene, Nos. RC219949, RC217935, RC211228, RC220932, RC206516) or to cells transiently transfected with human LILRA-1, -2, -4, -5, and -6 plasmids (Origene, Nos. RC210808, RC205626, RC220452, RC212310 RC212965). […] Murine primary antibodies to LILRA and LILRB targets and corresponding isotype controls were used to confirm specific binding of all targets tested (R&D Systems) while an AF647 F(ab′)₂ fragment goat anti-mouse antibody (Jackson ImmunoResearch, No. 115-606-062) was used for the detection of bound positive control antibodies. No binding of B2A-IgG4 or B2A-IgG1 to LILRB-1, -3, -4, or -5 was observed, and no binding of either antibody to LILRA-1, -2, -4, -5, or -6 was observed, confirming specificity of these antibodies.

[2] = biological target: T2, Human LILRB2 on stably transduced HEK293T cells (human, UniProt Q8N423 22-597); test: flow cytometry, HEK293T cells stably expressing human LILRB2
T2 construct: Lentiviral transduction (G&P Biosciences LTV2992); also called HEK293T-LILRB2; LILRB2-expressing HEK293T cells
T2 sequence (Q8N423 other isoform, or with tags, fused parts or gaps limits assumed): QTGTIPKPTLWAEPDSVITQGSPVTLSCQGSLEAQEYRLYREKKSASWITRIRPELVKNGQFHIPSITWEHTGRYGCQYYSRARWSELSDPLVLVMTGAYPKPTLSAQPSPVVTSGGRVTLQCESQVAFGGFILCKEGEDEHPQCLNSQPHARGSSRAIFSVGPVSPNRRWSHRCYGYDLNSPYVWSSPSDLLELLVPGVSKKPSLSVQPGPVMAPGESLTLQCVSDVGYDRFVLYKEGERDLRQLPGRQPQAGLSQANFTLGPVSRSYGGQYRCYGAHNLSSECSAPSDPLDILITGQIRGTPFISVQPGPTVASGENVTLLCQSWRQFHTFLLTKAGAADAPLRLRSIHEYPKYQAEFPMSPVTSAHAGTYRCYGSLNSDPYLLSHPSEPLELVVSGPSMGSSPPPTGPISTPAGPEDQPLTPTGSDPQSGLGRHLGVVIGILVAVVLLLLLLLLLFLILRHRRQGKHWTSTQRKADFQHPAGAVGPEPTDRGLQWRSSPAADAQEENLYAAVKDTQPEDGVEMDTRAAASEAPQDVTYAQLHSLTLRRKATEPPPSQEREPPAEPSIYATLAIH
Experimental: To confirm binding of LILRB2 antibodies, flow cytometry binding assays were performed using HEK293T cells stably expressing human LILRB2 (Example 3). […] The B2A-IgG1 and B2A-IgG4 chimeras bound the LILRB2-expressing HEK293T cells, with equivalent EC₅₀ values of 0.21 nM and 0.30 nM respectively.
Select humanized variant antibodies were purified and tested for their ability to bind human LILRB2 by ELISA, using the method described in Example 2, and binding to HEK293T cells expressing human LILRB2, using the method described in Example 4. Representative data are shown for IgG4 variants in Table 6.

[3] = biological target: T3, Human LILRB2 on primary human myeloid cells (human, UniProt Q8N423 22-597); test: flow cytometry, AF647-conjugated antibody on human monocytes (15 subjects), average
T3 construct: whole, on cells; the cell type is named under assay; also called LILRB2 on monocytes, M0 and M2c macrophages, myeloid dendritic cells, neutrophils
T3 sequence (Q8N423 22-597): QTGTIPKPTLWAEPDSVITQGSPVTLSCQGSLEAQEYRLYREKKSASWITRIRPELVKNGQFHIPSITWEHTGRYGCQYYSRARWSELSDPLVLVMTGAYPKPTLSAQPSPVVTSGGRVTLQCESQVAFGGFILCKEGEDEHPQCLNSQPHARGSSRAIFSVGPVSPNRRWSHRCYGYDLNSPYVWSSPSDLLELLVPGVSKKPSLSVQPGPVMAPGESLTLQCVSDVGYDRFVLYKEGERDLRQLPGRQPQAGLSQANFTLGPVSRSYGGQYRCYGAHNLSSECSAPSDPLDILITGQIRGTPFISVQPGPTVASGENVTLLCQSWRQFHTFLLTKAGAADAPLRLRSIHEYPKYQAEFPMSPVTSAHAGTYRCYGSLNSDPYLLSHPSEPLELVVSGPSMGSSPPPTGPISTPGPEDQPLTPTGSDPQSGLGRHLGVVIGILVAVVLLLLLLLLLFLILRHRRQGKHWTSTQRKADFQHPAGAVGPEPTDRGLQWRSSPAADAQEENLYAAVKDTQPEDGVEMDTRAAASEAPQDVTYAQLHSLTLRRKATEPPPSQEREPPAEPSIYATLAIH
Experimental: Anti-LILRB2 antibodies were evaluated for their ability to bind myeloid cell subsets expressing LILRB2, including monocytes, M0 macrophages, and M2c macrophages. M2c macrophages are used as a surrogate for tumor-associated macrophages, a suppressive macrophage commonly found in the tumor microenvironment. Frozen monocytes were removed from storage in vapor phase liquid nitrogen and thawed by gentle swirling in a water bath at 37° C., then resuspended in X-VIVO™ 15 media with 10% FBS. PBMC were placed in a 15 mL conical tube and centrifuged at 300×g for 5 minutes, then supernatant was removed. Cells were resuspended in Assay Medium (X-VIVO™ 15+10% FBS) at a cell density of 2.5×10⁵ cells/mL. Cells were plated into 96-well flat bottom plates at 100 μL/well (25K cells/well). M0 and M2c macrophages were generated as described in Example 10 and collected from flasks by incubation for 15 min at RT in Macrophage Detachment Solution DXF, then removed from the flask into X-VIVO™ 15 medium. Following centrifugation, the cells were resuspended in FACS Blocking Buffer D (FACS Buffer+10% FBS+0.5 mg/mL human IgG1) then incubated at 4° C. for 30 minutes. […]

T1 sequence (Q8NHL6 24-650): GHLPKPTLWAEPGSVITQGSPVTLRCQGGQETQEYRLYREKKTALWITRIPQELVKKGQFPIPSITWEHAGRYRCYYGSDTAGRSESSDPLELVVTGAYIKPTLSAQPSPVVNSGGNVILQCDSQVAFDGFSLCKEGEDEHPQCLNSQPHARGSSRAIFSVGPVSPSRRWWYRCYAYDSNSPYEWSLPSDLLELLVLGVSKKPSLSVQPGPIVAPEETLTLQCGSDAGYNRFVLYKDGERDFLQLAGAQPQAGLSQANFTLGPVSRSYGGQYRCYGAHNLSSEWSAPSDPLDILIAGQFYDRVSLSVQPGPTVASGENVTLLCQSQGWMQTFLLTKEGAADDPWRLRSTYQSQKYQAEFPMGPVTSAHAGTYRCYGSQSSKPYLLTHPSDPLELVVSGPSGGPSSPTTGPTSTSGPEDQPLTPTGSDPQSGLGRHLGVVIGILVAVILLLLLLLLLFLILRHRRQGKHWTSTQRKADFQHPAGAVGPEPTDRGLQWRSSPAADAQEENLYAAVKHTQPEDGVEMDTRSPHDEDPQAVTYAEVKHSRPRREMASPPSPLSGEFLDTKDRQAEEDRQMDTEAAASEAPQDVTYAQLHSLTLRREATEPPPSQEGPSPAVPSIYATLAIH

- MFI [1]: 43 MFI
B1: B2A-IgG1 (antibody)
heavy: not shown
light: DVVMTQTPSSVSAALGGTVTIKCQASQSIGSNLAWYQLKPGQRPKLLIYAAATLASGGSSRFKGSGSGTDFTLTISDLECADAATYYCQSYVSGSSDVAFGGGTEVVVKRTVAAPSVFIFPPSDEQLKSGTASVVCLLNNFYPREAKVQWKVDNALQSGNSQESVTEQDSKDSTYSLSSTLTLSKADYEKHKVYACEVTHQGLSSPVTKSFNRGEC
notes: Rabbit variable regions on human IgG1 / kappa constant regions; AF647-conjugated in some flow assays; also called B2A-IgG1 chimera; anti-LILRB2 B2A-IgG1

- BMAX [gMFI] [2]: 12100 gMFI
- EC50 [2]: 0.00034 µg/mL
B2: B2A-IgG4 (antibody)
heavy: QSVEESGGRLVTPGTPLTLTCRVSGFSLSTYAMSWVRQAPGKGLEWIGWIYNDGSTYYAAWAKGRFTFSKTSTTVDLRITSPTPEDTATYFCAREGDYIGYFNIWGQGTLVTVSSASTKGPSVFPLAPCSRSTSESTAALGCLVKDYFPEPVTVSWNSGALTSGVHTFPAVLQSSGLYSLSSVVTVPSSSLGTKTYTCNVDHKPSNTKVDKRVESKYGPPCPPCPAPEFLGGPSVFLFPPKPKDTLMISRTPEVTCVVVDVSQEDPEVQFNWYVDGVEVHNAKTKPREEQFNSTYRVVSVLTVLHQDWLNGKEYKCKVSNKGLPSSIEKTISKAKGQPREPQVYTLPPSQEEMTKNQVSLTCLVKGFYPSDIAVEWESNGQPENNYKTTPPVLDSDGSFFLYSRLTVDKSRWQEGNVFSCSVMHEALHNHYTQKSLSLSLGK
light: B1 light
notes: Rabbit variable regions on human IgG4 / kappa constant regions; also called B2A-IgG4 chimera; Parent B2A-IgG4

- EC50 [3]: 0.0356 µg/mL
B3: B2H1-55 (antibody, V domains shown)
VH: EVQLLESGGGLVQPGTSLTLSCAASGFSLSTYAMSWVRQAPGKGLEWIGWIYNDGSTYYAAWAKGRFTISKDTSKTTLYLQITSLRAEDTATYFCAREGDYIGYFNIWGQGTLVTVSS
VL: DVVMTQTPSSVSAALGGTVTIKCQASQSIGSNLAWYQLKPGQRPKLLIYAAATLASGGSSRFKGSGSGTDFTLTISSLEPADAATYYCQSYVSGSSDVAFGGGTEVVVK
notes: Humanized variant, human IgG1 / kappa; also called humanized variant B2H1-55; humanized LILRB2 antibody B2H1-55
